# Read-outs that look alike come from different tables or passages of the source.
# How the values were obtained:
# CD19 [1] = target: CD19 (UniProt P15391); assay: cell-based or functional assay
# CD19 [2] = target: CD19 (UniProt P15391); assay: cell-based or functional assay; remark: listed apart in the source
Molecule,Average MFI Difference (MFI of ON - MFI of OFF) (BFP reporter; no CAR stimulation) (CD19 [1]) [MFI],Average MFI Difference (MFI of ON - MFI of OFF) (BFP reporter; with CAR stimulation by ALPPL2+ K562) (CD19 [1]) [MFI],"Average Signal To Noise (BFP reporter MFI, CD19+ K562 vs K562; no CAR stimulation) (CD19 [1])","Average Signal To Noise (BFP reporter MFI, CD19+ K562 vs K562; with CAR stimulation by ALPPL2+ K562) (CD19 [1])",Average MFI Difference (MFI of ON - MFI of OFF) (BFP reporter; no CAR stimulation) (CD19 [2]) [MFI],Average MFI Difference (MFI of ON - MFI of OFF) (BFP reporter; with CAR stimulation by ALPPL2+ K562) (CD19 [2]) [MFI],"Average Signal To Noise (BFP reporter MFI, CD19+ K562 vs K562; no CAR stimulation) (CD19 [2])","Average Signal To Noise (BFP reporter MFI, CD19+ K562 vs K562; with CAR stimulation by ALPPL2+ K562) (CD19 [2])"
hingeNotch STS variant with DAG1 STS (RKKRKGK) (receptor),2520,4640,2.82,7.4,–,–,–,–
hingeNotch STS variant with GHR STS (KQQRIK) (receptor),141,-51.5,2.22,2.67,–,–,–,–
hingeNotch STS variant with CXCL16 STS (KRRR) (receptor),1290,1690,14.4,27.9,–,–,–,–
hingeNotch STS variant with AGER STS (RRQRR) (receptor),1130,1790,11.9,106,–,–,–,–
hingeNotch STS variant with CDH2 STS (…) (receptor),1130,2830,2.26,4.24,–,–,–,–
hingeNotch STS variant with Notch 2 STS (KRKRKH) (receptor),1260,4190,5.24,15.5,–,–,–,–
hingeNotch STS variant with KCNE3 STS (RSRKVDKR) (receptor),976,1900,9.78,62.5,–,–,–,–
hingeNotch STS variant with EPCAM STS (…) (receptor),864,2370,1.64,2.48,–,–,–,–
hingeNotch STS variant with LRP1B STS (…) (receptor),1010,2560,2.32,10.3,–,–,–,–
hingeNotch STS variant with NRG1 STS (…) (receptor),806,637,9.42,25,–,–,–,–
hingeNotch STS variant with KL STS (KKGRRSYK) (receptor),880,1570,3.72,6.53,–,–,–,–
hingeNotch STS variant with PTPRF STS (KRKRTH) (receptor),1180,2570,10.5,50.8,–,–,–,–
hingeNotch STS variant with CSF1R STS (KYKQKPK) (receptor),801,1510,3.09,5.45,–,–,–,–
hingeNotch STS variant with Notch 4 STS (RRRREH) (receptor),1020,1480,10.3,24.1,–,–,–,–
hingeNotch STS variant with Jag2 STS (…) (receptor),1320,3320,5.09,21.4,–,–,–,–
"RRKREH (receptor, part only) [hingeNotch STS variant with Notch3 STS (RRKREH)]",–,–,–,–,1190,1990,12.8,29.2
"RRRSKYSKAK (receptor, part only) [hingeNotch STS variant with EPHA3 STS (…)]",–,–,–,–,1290,2270,2.97,6.31
"HPLRKRRKRKKK (receptor, part only) [hingeNotch STS variant with BTC STS (…)]",–,–,–,–,480,423,1.23,1.71
"HRRCKHRTGK (receptor, part only) [hingeNotch STS variant with IL1R2 STS (…)]",–,–,–,–,980,2030,2.41,4.78
"KTKKQRKQMHNHLR (receptor, part only) [hingeNotch STS variant with NRG2 STS (…)]",–,–,–,–,1260,2200,8.32,15.8
